Laboratory results taken from patent publication US20220195071A1 (TORQUE THERAPEUTICS, published 2022).

Target: T1, mouse CD8 (mouse, UniProt P01731 28-247; P10300 22-213)
T1 construct: whole, on cells
Test: flow cytometry of blood 1 hr after i.v. injection (2 µg/mouse); kappa+ IL-15+ cells

T1 sequence (P01731 28-247, chain 1 of 2): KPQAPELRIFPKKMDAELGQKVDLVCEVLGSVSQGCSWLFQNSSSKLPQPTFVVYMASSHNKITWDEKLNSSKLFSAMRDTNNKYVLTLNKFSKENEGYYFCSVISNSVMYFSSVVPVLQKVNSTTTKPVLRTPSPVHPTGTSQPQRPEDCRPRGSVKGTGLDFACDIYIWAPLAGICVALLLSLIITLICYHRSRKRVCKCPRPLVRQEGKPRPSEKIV
T1 sequence (P10300 22-213, chain 2 of 2): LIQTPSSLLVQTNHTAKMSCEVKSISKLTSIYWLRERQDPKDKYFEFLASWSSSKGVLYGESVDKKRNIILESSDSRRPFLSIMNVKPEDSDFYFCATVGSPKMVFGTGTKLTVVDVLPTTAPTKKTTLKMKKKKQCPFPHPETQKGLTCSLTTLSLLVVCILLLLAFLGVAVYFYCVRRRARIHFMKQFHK

B1: chY169Fab-M1scFv-IL15/sushi (bispecific antibody)
chain 1: EVKLQESGGGLVQPGRSLKLSCAASGFNFNDYWMGWVRQAPGKGLEWIGEINKDSSTINYTPSLKDKFTISRDNAQNTLYLQMSKLGSEDTAIYYCARARGMMVLIIPHYFDYWGQGVMVTVSSASTKGPSVFPLAPSSKSTSGGTAALGCLVKDYFPEPVTVSWNSGALTSGVHTFPAVLQSSGLYSLSSVVTVPSSSLGTQTYICNVNHKPSNTKVDKKVEPKSCGGGGSGGGGSGGGGSQVNLLQSGAALVKPGASVKLSCKASGYTFTDYYIHWVKQSHGKSLEWVAYINPDRDYTNYNEKFKSKATLTVDKSTNTAYMELSRLTSEDSATFYCTRRLYDGAYYYSWFAYWGQGTLVTVSSGGGGSGGGGSGGGGSGGGGSDIQMTQSPHSLSASLGETVSIECLASEGISNYLAWYQQKPGKSPQLLIYYGSRLQDGVPSRFSGSGSGTQYSLRITNMQPEDEGVYYCQQGYKYPYTFGAGTKLELK
chain 2: not shown
chain 3: ITCPPPMSVEHADIWVKSYSLYSRERYICNSGFKRKAGTSSLTECVLNKATNVAHWTTPSLKCIR
- fold higher concentration of circulating tethered-fusion positive cells against vehicle control and chM1Fab-IL15/sushi: > 10 fold
